These results are taken from patent US20100190682A1, “USE OF PROTEIN HYDROLYSATES TO STABILIZE METALLOPROTEASE DETERGENT FORMULATIONS” (priority 2007, published 2010).

For data set [1] the following is noted: in the presence of zinc ion concentrations lower than 15 mM; cited from earlier work.
A short description of data set [2]: NprE stability at different storage concentrations (AGLA activity over time). It is filed as physicochemical. Here is the method:
Samples were prepared containing the neutral metalloprotease, NprE, at a range of concentrations from 625 to 10000 ppm in 10 mM HEPES (N-(2-Hydroxyethyl)piperazine-N′-(2-ethanesulfonic acid)) buffer at pH 8.0. All samples, except the one control at 625 ppm NprE concentration, included 10% PPG and 0.5 mM CaCl2. All samples were incubated at a temperature of 32° C. over a period of 6 hours. NprE activity of the samples was measured using the AGLA activity assay at various time points.

In a further data set the target is T1, NprE (Bacillus amyloliquefaciens, UniProt P06832).
T1 construct: made in house; host or cells: Bacillus subtilis
Description: Remaining AGLA activity of NprE stability assay samples in DW-CT HDL detergent formulation. It is filed as biochemical. The settings on record: no inhibitor; 2 mg/mL NprE incubated in HDL detergent formulation DW-CT, 32° C. The method, then:
The HDL detergent formulation used in this example was: DW-CT. This formulation has a 37% water content and was designed to make up to 90% by volume with 10% room (by volume) to add ingredients such as stabilizers or enzymes.
Assays were carried out using a 10% DW-CT detergent formulation made by mixing 5 mL of DW-CT (prepared as in Table 1), 1 mL of 500 mM HEPES at pH 8.0, and 44 mL distilled water.
Stability assay samples were prepared using five different candidate protein hydrolysates, as well as a control with no inhibitor added.
In general, 20 μL of inhibitor stock solution was pre-mixed with 10 μL of 50 mg/mL NprE stock solution. Then, 220 μL of 10% DW-CT detergent formulation in 10 mM HEPES was added to each sample so that the final NprE concentration was 2 mg/mL. Samples were incubated at 32° C. in a microtiter plate in a Thermomixer (Eppendorf).
The final concentration of enzyme in each sample was 2 mg/mL NprE. The final inhibitor concentrations in their respective samples were: 5.6 mg/mL of Amisoy, Amicase, HyPep 4601, or Proteose Peptone, respectively; or 7.2 mM of the casein hydrolysis product mixture (based on 12.5-fold dilution). […]
Remaining NprE activity of each of stability assay samples (prepared as above) was measured at various time points using the general AGLA activity assay except that the assay solution used was 50 mM MES, 2.5 mM CaCl2, 0.005% Tween 80 at pH 6.5.

T1 sequence (P06832 222-521): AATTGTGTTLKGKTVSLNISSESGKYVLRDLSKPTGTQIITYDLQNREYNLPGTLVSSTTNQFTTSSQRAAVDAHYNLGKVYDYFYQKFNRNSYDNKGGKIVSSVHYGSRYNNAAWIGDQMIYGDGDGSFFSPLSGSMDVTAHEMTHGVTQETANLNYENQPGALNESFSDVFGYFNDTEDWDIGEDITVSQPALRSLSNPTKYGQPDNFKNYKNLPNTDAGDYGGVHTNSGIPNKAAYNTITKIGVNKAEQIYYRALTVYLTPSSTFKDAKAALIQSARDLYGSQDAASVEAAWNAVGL

Regarding “NprE: recombinant neutral metalloprotease: Bacillus amyloliquefaciens neutral metalloprotease cloned into Bacillus subtilis”, the “stability period under detergent formulation conditions” value in data set [1] is reported as “approximately 4 weeks”. Besides, the “NprE activity maintained for 1.5 hours” value in data set [2] (10,000 μg/mL (or ppm) NprE, 10% PPG, 0.5 mM CaCl2, 10 mM HEPES pH 8.0, 32° C.) is “almost full activity”. Besides, in data set [2] (625, 1250 and 2500 ppm NprE, 10% PPG, 0.5 mM CaCl2, 10 mM HEPES pH 8.0, 32° C.), the “NprE activity at 1.5 hr” value is listed as ~60%. Also, in data set [2] (625 ppm NprE, no added PPG or CaCl2, 10 mM HEPES pH 8.0, 32° C.), the “NprE activity over time, control sample” value is “lost nearly all of its activity within the first 2 hours”. Also, in the data set with NprE, the “loss of original NprE activity in about an hour” value is given as “more than 80%”.
